B1: VHH‐10C4 (VHH)
VHH: QVQLQESGGGSVQAGGFLRLSCAASGYTYSTCSMAWYRQAPGKERELVSSIRNDGSTAYADSVKGRFTISQDNAKNTVYLQMNSLKPEDTAMYYCNIRIGVGPGGTCSIYAPYWGEGTQVTVSS
B2: VHH‐4A2 (VHH)
VHH: QVQLQESGGGLVQPGGSLRLSCAASGFTFETQYMTWVRQAPGKGPEYVSSINSGGTIKYYANSSVKGRFTISRDNAKNTLYLQMNNLRPEDTAIYYCQLGQWAGVGAASSRGQGTQVTVSS
B3: VHH‐B9 (VHH)
VHH: DVQLQESGGGSVQAGGSLRLSCAASEYTYGYCSMGWYRQAPGKERELVSTITSDGSTSYVDSVKGRFTISQDNAKNTVYLQMNSLKPEDTAKYYCYTKTCANKLGAKFISWGQGTQVTVSS
notes: Recombinant form used in SPR, BLI, dot blot (detected by anti-His) and the cleavage assays; source: E. coli WK6 (pHEN6), periplasmic extract, purified (Ni-NTA, Superdex-75); not shown: His6, C-terminal, kept

What was measured:
[1] = target: human BACE1 (amino acids 1–460) fused to the constant region of human IgG1 (hBACE1:Fc), wild type (human) (UniProt P56817)
Sequence of human BACE1 (amino acids 1–460) fused to the constant region of human IgG1 (hBACE1:Fc), wild type (human) (P56817 22-460): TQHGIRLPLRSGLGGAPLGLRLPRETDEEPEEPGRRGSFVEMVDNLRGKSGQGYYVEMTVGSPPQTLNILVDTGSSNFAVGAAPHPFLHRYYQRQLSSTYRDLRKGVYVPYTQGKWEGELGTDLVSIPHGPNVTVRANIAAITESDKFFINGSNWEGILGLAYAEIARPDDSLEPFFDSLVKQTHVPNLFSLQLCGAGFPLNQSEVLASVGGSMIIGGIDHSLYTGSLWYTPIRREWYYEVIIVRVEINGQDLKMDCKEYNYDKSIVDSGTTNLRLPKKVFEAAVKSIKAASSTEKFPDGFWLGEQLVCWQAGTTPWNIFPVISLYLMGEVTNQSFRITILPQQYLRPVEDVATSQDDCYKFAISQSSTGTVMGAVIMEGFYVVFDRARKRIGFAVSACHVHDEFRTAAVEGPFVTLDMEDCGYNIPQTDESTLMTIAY

[2] = target: purified human BACE1 ectodomain (human) (UniProt P56817); assay: SPR; BIAcore; 2,500 RU purified BACE1 ectodomain amine-coupled to a CM5 chip; VHHs injected at 0–500 nM, 25°C; citrate buffer with 150 mM NaCl, 3.5 mM EDTA, 0.005% Tween-20 at pH 4.5
Sequence of purified human BACE1 ectodomain (human) (P56817 22-457): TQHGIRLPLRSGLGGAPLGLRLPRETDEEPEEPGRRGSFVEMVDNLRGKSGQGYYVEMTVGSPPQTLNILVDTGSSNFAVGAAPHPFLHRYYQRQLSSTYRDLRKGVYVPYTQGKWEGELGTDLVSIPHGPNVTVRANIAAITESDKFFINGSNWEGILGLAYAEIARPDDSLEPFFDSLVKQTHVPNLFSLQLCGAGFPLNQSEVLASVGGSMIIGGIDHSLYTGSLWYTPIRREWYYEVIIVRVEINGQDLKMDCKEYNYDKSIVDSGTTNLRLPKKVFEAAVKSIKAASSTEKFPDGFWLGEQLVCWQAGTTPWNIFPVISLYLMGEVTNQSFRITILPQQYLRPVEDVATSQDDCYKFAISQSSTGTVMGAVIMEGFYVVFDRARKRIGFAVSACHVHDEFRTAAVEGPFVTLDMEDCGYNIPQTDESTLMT

[3] = target: purified human BACE1 ectodomain (human) (UniProt P56817); assay: SPR; BIAcore; 2,500 RU purified BACE1 ectodomain amine-coupled to a CM5 chip; VHHs injected at 0–500 nM, 30 μl/min, 25°C; HBS buffer (10 mM Hepes (pH 7.5), 150 mM NaCl, 3.5 mM EDTA, 0.005% Tween-20); table gives pH 7.0
biotinylated mouse BACE1 [4] = target: T1, biotinylated mouse BACE1 (Mus musculus, UniProt P56818, biotin); assay: cell-based or functional assay
T1 sequence (P56818 46-501): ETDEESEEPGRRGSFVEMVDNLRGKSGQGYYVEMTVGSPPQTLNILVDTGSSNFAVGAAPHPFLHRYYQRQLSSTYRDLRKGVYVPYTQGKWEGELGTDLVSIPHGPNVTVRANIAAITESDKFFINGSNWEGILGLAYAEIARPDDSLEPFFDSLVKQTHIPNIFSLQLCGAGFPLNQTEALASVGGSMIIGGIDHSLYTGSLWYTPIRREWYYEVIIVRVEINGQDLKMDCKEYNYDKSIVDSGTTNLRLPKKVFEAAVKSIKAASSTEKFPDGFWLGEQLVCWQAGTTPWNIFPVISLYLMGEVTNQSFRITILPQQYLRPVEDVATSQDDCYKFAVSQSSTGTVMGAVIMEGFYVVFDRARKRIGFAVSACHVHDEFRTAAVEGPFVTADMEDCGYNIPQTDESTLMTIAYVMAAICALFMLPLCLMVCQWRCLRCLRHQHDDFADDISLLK

[5] = target: human BACE1 (amino acids 1–460) fused to the constant region of human IgG1 (hBACE1:Fc), wild type (Homo sapiens, UniProt P56817); assay: cell-based or functional assay
Sequence of human BACE1 (amino acids 1–460) fused to the constant region of human IgG1 (hBACE1:Fc), wild type (P56817 22-460): as the sequence (P56817 22-460) above

mouse BACE2 = target: T2, mouse BACE2 (Mus musculus, UniProt Q9JL18); assay: BLI; OctetRED96; biotinylated human or mouse BACE1 immobilised at 1 μg/ml on streptavidin biosensors; serial dilutions of VHH-B9 (table: Conc. 100 nM); Kinetic Buffer, 25°C, 1,000 rpm; 1:1 fitting model; conditions: both partners purified
T2 construct: mouse BACE2; also called mBACE2
T2 sequence (Q9JL18 20-514): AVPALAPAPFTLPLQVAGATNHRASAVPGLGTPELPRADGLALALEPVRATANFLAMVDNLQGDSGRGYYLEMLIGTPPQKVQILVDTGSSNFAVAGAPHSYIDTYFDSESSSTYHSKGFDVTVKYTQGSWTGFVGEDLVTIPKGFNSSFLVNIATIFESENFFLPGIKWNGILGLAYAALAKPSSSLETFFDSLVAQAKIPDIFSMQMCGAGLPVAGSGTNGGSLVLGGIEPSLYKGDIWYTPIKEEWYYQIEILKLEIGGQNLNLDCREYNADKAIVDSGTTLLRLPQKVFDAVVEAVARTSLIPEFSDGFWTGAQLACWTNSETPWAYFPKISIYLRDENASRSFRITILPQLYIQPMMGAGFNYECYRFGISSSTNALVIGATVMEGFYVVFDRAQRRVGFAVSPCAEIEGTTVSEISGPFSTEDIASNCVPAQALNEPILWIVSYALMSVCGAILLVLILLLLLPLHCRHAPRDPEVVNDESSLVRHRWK

biotinylated human BACE1 = target: T3, biotinylated human BACE1 (Homo sapiens, UniProt P56817, biotin); assay: as above; conditions: both partners purified
T3 construct: human BACE1, biotinylated and immobilised on streptavidin biosensors; Probably an ectodomain preparation; also called hBACE1; biotinylated BACE1
T3 sequence (P56817 46-501): as the sequence (P56818 46-501) above, with S6P, I162V, I165L, T180S, A182V, V340I, A393L, H443Q counted along it

biotinylated mouse BACE1 [6] = target: T1, biotinylated mouse BACE1; assay: as above; conditions: both partners purified

| Binder | EC50 of inhibition of hBACE1:Fc in the in vitro APP cleavage assay (MBP-C125sw substrate, cleavage product by ELISA) [1] [nM] | Kd [2] [nM] | koff [2] [s⁻¹] | kon [2] [M⁻¹ s⁻¹] | Kd [3] [nM] | koff [3] [s⁻¹] | kon [3] [M⁻¹ s⁻¹] | EC50 of lowering Aβ1-40 (ELISA of conditioned medium) in primary mouse neurons expressing human APP695, VHH-B9 from 10 µM to 0.7 nM (biotinylated mouse BACE1 [4]) [nM] | EC50 of inhibition of hBACE1:Fc in the in vitro APP cleavage assay (MBP-C125sw substrate, cleavage product by ELISA) [5] [nM] | binding result (mouse BACE2) | Kd (biotinylated human BACE1) [nM] | koff (biotinylated human BACE1) [s⁻¹] | kon (biotinylated human BACE1) [M⁻¹ s⁻¹] | Kd (biotinylated mouse BACE1 [6]) [nM] | koff (biotinylated mouse BACE1 [6]) [s⁻¹] | kon (biotinylated mouse BACE1 [6]) [M⁻¹ s⁻¹] |
| --- | --- | --- | --- | --- | --- | --- | --- | --- | --- | --- | --- | --- | --- | --- | --- | --- |
| B1 | 112 | 27.7 | 0.0125 | 451000 | 74.7 | 0.00792 | 106000 | – | – | – | – | – | – | – | – | – |
| B2 | 789 | 21.2 | 0.00841 | 397000 | 48.2 | 0.0231 | 479000 | – | – | – | – | – | – | – | – | – |
| B3 | – | 1.9 | 0.00013 | 662000 | 3.7 | 0.00098 | 267000 | 85.4 | 99.2 | no binding (tested: 100 nM) | 2.9 | 0.000443 | 153000 | 3.2 | 0.00072 | 224000 |

From PMC8988209, “AAV‐mediated delivery of an anti‐BACE1 VHH alleviates pathology in an Alzheimer's disease model” (EMBO Molecular Medicine, 2022)
